Experimental data published in paper PMC6097844.

Molecular target: Bh-RNase HC (RNase H1 catalytic domain) (Bacillus halodurans, UniProt Q9KEI9 59-196)
Test: X-ray crystallography

Chain of Bh-RNase HC (RNase H1 catalytic domain) (Q9KEI9 59-196): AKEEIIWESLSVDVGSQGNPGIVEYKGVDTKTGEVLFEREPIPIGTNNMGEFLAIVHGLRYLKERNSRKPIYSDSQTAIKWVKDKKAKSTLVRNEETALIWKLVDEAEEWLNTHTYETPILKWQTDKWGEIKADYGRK

B1: RNA/DNA hybrid 6-mer (DNA:RNA)
RNA: ACAUCG
DNA: CGATGT
modifications: strand 1 printed ArCrArUrCG: ribonucleotides at 2-5, deoxy A1 and G6; strand 2 all DNA
B1: binds.
